In paper PMC5295774, “Stabilization of Nucleosomes by Histone Tails and by FACT Revealed by spFRET Microscopy” (Cancers, 2017):

Target: T1, His-MBP-tagged SSRP1 (1–709) (human, UniProt Q08945 1-709)
T1 construct: SSRP1 subunit of human FACT, residues 1-709; The tag was still on SSRP1 when the complex with Spt16 was purified on Nickel-NTA; it was cut afterwards; also called structure-specific recognition protein 1; source: E. coli BL21(DE3), purified (Nickel-NTA)
Assay: pull-down; purified Spt16 and His-MBP-tagged SSRP1 mixed at a 1:1 molar ratio, complex purified on Nickel-NTA by the tag of SSRP1; after TEV cleavage again Nickel-NTA and Superdex 200 SEC; 50 mM NaH2PO4-Na2HPO4, 300 mM NaCl, pH 7.5
Conditions: both partners purified

T1 sequence (Q08945 whole entry, the tested form may be a part): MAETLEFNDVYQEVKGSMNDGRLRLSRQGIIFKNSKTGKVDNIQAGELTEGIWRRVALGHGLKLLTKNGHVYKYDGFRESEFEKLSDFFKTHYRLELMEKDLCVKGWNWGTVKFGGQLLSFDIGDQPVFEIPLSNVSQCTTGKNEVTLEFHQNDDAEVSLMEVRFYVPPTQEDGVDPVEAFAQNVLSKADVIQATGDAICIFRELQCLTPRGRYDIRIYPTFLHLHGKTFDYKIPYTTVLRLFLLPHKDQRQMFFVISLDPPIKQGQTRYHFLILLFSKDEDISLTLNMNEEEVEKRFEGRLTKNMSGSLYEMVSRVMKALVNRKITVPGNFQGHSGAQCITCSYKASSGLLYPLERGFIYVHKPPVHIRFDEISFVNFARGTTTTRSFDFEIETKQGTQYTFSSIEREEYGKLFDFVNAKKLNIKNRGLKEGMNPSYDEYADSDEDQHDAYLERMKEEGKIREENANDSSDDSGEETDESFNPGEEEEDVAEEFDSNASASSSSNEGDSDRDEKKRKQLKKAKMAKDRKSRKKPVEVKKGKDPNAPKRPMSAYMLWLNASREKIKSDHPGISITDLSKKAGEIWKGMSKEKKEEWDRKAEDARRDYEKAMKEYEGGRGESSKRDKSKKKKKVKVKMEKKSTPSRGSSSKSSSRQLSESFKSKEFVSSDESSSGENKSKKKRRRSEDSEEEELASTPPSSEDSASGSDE

binding result: binds
B1: Spt16 (501–1006) (domain or fragment, human, UniProt Q9Y5B9 501-1006, looked up)
chain: QIQKARKSNVSYKNPSLMPKEPHIREMKIYIDKKYETVIMPVFGIATPFHIATIKNISMSVEGDYTYLRINFYCPGSALGRNEGNIFPNPEATFVKEITYRASNIKAPGEQTVPALNLQNAFRIIKEVQKRYKTREAEEKEKEGIVKQDSLVINLNRSNPKLKDLYIRPNIAQKRMQGSLEAHVNGFRFTSVRGDKVDILYNNIKHALFQPCDGEMIIVLHFHLKNAIMFGKKRHTDVQFYTEVGEITTDLGKHQHMHDRDDLYAEQMEREMRHKLKTAFKNFIEKVEALTKEELEFEVPFRDLGFNGAPYRSTCLLQPTSSALVNATEWPPFVVTLDEVELIHFERVQFHLKNFDMVIVYKDYSKKVTMINAIPVASLDPIKEWLNSCDLKYTEGVQSLNWTKIMKTIVDDPEGFFEQGGWSFLEPEGEGSDAEEGDSESEIEDETFNPSEDDYEEEEEDSDEDYSSEAEESDYSKESLGSEEESGKDWDELEEEARKADRESRY
notes: Spt16 subunit of human FACT, residues 501-1006 (without the N-terminal domain); His-MBP tag cut with TEV protease and removed by SEC before mixing with SSRP1; also called suppressor of Ty 16; Spt16 without the NTD; source: E. coli BL21(DE3), purified (Nickel-NTA, TEV cleavage, Superdex 200 SEC)
